The values that follow come from patent publication US20170173114A1, “METHODS AND COMPOSITIONS FOR INDUCTION OF UCP1 EXPRESSION” (Joslin Diabetes Center, Inc., priority 2014, published 2017).

Entries after “also recorded” stand apart in the source; their conditions may differ.

The test system of one series is UCP1 protein. Put plainly: UCP1 protein in WT-1 cells (immunofluorescent staining, Western blot). Format: cell-based, murine. Conditions: for UCP1 protein, immunofluorescent staining: relative to control cells. As for the experimental part: Cells were harvested in lysis buffer (50 mM HEPES, 137 mM NaCl, 1 mM MgCl2, 1 mM CaCl2, 10 mM Na2P2O7, 10 mM NaF, 2 mM EDTA, 10% glycerol, 1% Igepal CA-630, 2 mM vanadate, 10 μg/ml of leupeptin, 10 μg/ml of aprotinin, 2 mM phenylmethylsulfonyl fluoride; pH 7.4). After lysis, lysates were clarified by centrifugation at 12,000×g for 20 min at 4° C., the amount of protein in the supernatants was determined by the Bradford Protein Assay (Bio-Rad Laboratories, Hercules, Calif.). Proteins were directly solubilized in Laemmli sample buffer. Equal amounts of lysates were separated by sodium dodecyl sulfate-polyacrylamide gel electrophoresis and transferred to Immobolin-P membranes. Membranes were blocked overnight at 4° C. and incubated with the indicated antibody for 2 hours at room temperature. Specifically bound primary antibodies were detected with peroxidase-coupled secondary antibody and enhanced chemiluminescence (ECL, Amersham Biosciences, Piscataway, N.J.).
The effect of FGF6 on differentiation of WT-1 murine brown preadipocytes was also examined. WT-1 cells can be induced to undergo brown adipocyte differentiation, characterized by lipid accumulation and expression of adipogenic and brown fat markers, as described above (Klein et al. (1999) J Biol Chem 274:34795; Tseng et al. (2005) Nat Cell Biol 7:601). WT-1 cells were treated with FGF6 in growth media (DMEM+10% FBS), a vehicle control (“control” or “C” referred to in FIGS. 3A-D), or induction media (“induction” or “I” referred to in FIGS. 3A-D) as described above for seven days. Following the treatment, cells were examined for the color of the culture media in combination with oil Red O staining, expression of adipogenic markers, expression of brown fat markers, immunofluorescent staining of cells with UCP1 and DPAI, and Western blot analysis to determine the presence of UCP1 and β-tubulin. The results are described in FIGS. 3A to 3D.
FGF2, FGF6 and FGF9 were used at a dosage of 200 ng/mL. Cells were stained using immunofluorescent stains for UCP1 and DAPI (which binds to DNA).

Another series deals with UCP1 and PTGS2. Put plainly: UCP1 and PTGS2 mRNA in WT-1 cells differentiated with BMP7. The class given is cell-based, murine. As to conditions: 200 mg/mL FGF6 for 32 hours after 8 days BMP7; vs vehicle. The procedure:
WT-1 preadipocyte cells were exposed to 3.3 nM BMP7 in growth media (DMEM-high glucose, 10% FBS, supplemented with 20 nM insulin and 1 nM triiodothyronine (T3)) for 8 days in order to induce differentiation of the adipocytes (Tseng Y. H. et al., (2008) Nature 454(7207):1000-1004). Following day 8 of treatment, the cells were exposed to […] of FGF6 protein, or vehicle control, in growth media for 32 hours. Cells were then collected, and UCP1 and PTGS2 mRNA expression levels were determined according to the quantitative RT-PCR assay described above.

Series [1] deals with 3T3-F442A white preadipocytes. Kind of series: Seahorse Bioanalyzer cellular respiration in 3T3-F442A white preadipocytes. Format: cell-based. Conditions: constitutive overexpression of FGF6. An excerpt:
The Seahorse XF24 (Seahorse Bioscience, http://www.seahorsebio.com/) was utilized for respirometry to measure oxygen consumption rates (OCR; indicating oxidative phosphorylation) and extracellular acidification rates (ECAR; indicating extracellular pH) in mature brown adipocytes. The cell plates and assay cartridges for the Seahorse XF24 have four ports allowing for drug delivery to individual wells during measurement of the metabolic parameters. For a typical bioenergetic profile, cells are first treated with oligomycin to block ATP synthase, FCCP as an uncoupler and Rotenone to block Complex 1 of the ETC (all from Sigma). Example 2 provides additional details regarding the general method. Data provided in the Figures (e.g., FIG. 27) based on the Seahorse Bioanalyzer includes a bottom horizontal line which represents the baseline of the mechanics of the machine and is not related to the experiment.
(§1) To assess FGF6's role in the regulation of mitochondrial activity, FGF6 was stably expressed in WT-1 brown preadipocytes and 3T3-F442A white preadipocytes. Stable cells were generated by viral infection followed by drug selection.
A profile of cellular respiration was developed by utilizing well-characterized mitochondrial toxins, as described in FIG. 5B. First, basal respiration was measured, followed by injection of oligomycin (an inhibitor of ATP synthase which allows measurement of ATP turnover). Then, the uncoupler FCCP (carbonilcyanide p-triflouromethoxyphenylhydrazone) was injected to measure respiratory capacity, followed by the complex 1 inhibitor rotenone (which prevents electron transfer activity and leaves only non-mitochondrial activity to be measured).
(§2) As mentioned above, 3T3-F442A white preadipocytes were also used to determine FGF6's role in mitochondrial activity regulation.

The nature of series [2]: Glucose levels after subcutaneous injection in Chow or high fat diet mice. Format: in vivo, C57BL6 mice. As to conditions: 0.5 mg/kg subcutaneous; vs buffer. The procedure:
To determine whether induction of UCP1 and mitochondrial activity by FGF6 could lead to increased nutrient utilization and lower blood glucose or fatty acid in obese mice, diet-induced obese (DIO) mice were treated with recombinant FGF6, and glucose levels were monitored after injection. Specifically, C57BL6 mice (11 weeks) were fed on either a high fat diet (HFD) or a Chow diet (a regular animal diet as a control) and were injected subcutaneously with 0.5 mg/kg recombinant FGF6 (n=5) or buffer (n=5). Glucose levels were measured every 6 hours after injection.

Another series has as its system UCP1. Kind of series: UCP1 expression in 3T3-F442A white preadipocytes overexpressing FGF6. The class given is cell-based. As to conditions: constitutive overexpression of FGF6 in 3T3-F442A. The procedure:
FGF6 lentiviral vector was generated by cloning mouse FGF6 cDNA into a lentiviral vector. Lentiviruses were obtained by transfecting 293T cells with lentiviral vectors. Viral supernatant was filtered through 0.45 um filter before applying to cells. Transduction was accomplished by incubating cells with virus supernatant. Stable cells were established by drug selection. The lentiviral vector contains a drug resistant gene for selection.
as §1, §2

The next series has as its system WT-1 brown preadipocytes. Put plainly: Extracellular acidification rate (glycolysis) profile in FGF6 overexpressing WT-1 brown preadipocytes. Format: cell-based, murine. As to conditions: FGF6 overexpressing WT-1 vs control cells. The procedure:
To determine whether nutrient supply could regulate mitochondrial activity in FGF6-treated cells, concentrations of glucose in the assay media of cells were manipulated and measured in the Seahorse Bioanalyzer. FGF6 was stably expressed in WT-1 brown preadipocytes and 3T3-F442A white preadipocytes. Stable cells were generated by viral infection followed by drug selection.
A profile of the extracellular acidification rate (ECAR) was developed as described in FIG. 20A. 10 mM glucose was added to the assay media, which was then taken up by the cells and catabolized through glycolysis, producing ATP and protons, and resulting in a rapid increase in ECAR. […] Lastly, the glycolysis inhibitor 2-DG was added to measure […].

B1: FGF6: fibroblast growth factor 6; recombinant human FGF from R&D Systems, or mouse FGF6 cDNA overexpressed by lentiviral vector (protein)
chain: KRQRRLYCNVGIGFHLQVLPDGRISGTHEENPYSLLEISTVERGVVSLFGVRSALFVAMNSKGRLYATPSFQEECKFRETLLPNNYNAYESDLYQGTYIALSKYGRVKRGSKVSPIMTVTHFLPRI
Regarding B1, in the series with UCP1 protein (WT-1, 200 ng/mL with insulin 20 nM and T3 1 nM), the “UCP1 protein, immunofluorescent staining” value is listed as “significant levels of staining”. Further, in the series with UCP1 protein (WT-1, seven days), the “UCP1 protein, Western blot” value is “present” and the “UCP1 protein, immunofluorescent staining” value is on record as “significant levels of staining”. In the series with UCP1 and PTGS2, the “PTGS2 levels in cells differentiated using BMP7” value is reported as “increased” and the “UCP1 expression in cells differentiated using BMP7” value is “induced UCP1 expression”. In series [1], the “gain of ATP turnover” value worked out at 5 fold, the “gain of proton leak” value is on record as 5 fold, the “increase in cellular respiration” value was 5-10 fold and the “increase of basal respiration” value is roughly 7 fold. Also, in series [1], the “increase of maximal respiratory capacity” value was roughly 6 fold. For the same molecule, in series [2], the “glucose level, Chow diet mice” value was “reduction in glucose levels; also recorded: lowers glucose levels” and the “glucose level, high fat diet (obese) mice” value is given as “lowers glucose levels”. Moreover, the UCP1 expression entry in the series with UCP1 is “resulted in UCP1 expression; also recorded: marked increases”. For the same molecule, the “cellular glycolysis, glycolytic capacity and glycolytic reserve (ECAR)” value in the series with WT-1 brown preadipocytes was “increase in cellular glycolysis, glycolytic capacity and glycolytic reserve”.
